Measured values as given in PMC8834124, “Enzymatic Preparation of Gentiooligosaccharides by a Thermophilic and Thermostable β-Glucosidase at a High Substrate Concentration” (Foods, 2022).

Legend:
Experiment in all cases: purified protein
Type in all cases: biochemical, Thermotoga sp. KOL6
[1] = test system: OC[C@H]1O[C@@H](OC[C@H]2OC(O)[C@H](O)[C@@H](O)[C@@H]2O)[C@H](O)[C@@H](O)[C@@H]1O
[2] = test system: OC[C@H]1O[C@@H](O[C@H]2[C@H](O)[C@@H](CO)OC(O)[C@@H]2O)[C@H](O)[C@@H](O)[C@@H]1O
[3] = test system: O=[N+]([O-])c1ccc(O[C@@H]2O[C@H](CO)[C@@H](O)[C@H](O)[C@H]2O)cc1
[4] = test system: OC[C@H]1O[C@@H](O[C@H]2C(O)O[C@H](CO)[C@@H](O)[C@@H]2O)[C@H](O)[C@@H](O)[C@@H]1O

With “β-glucosidase TsBgl1 (Thermotoga sp. KOL6)” the Km [1] was 3680 µM, the kcat [1] was 240 s⁻¹ and the kcat/Km [1] was 65200 M⁻¹ s⁻¹. The Km [2] was 2170 µM, the kcat [2] was 295 s⁻¹ and the kcat/Km [2] was 136000 M⁻¹ s⁻¹. The Km [3] was 240 µM, the kcat [3] was 124 s⁻¹ and the kcat/Km [3] was 509000 M⁻¹ s⁻¹. For the same substance, the Km [4] was 3950 µM, the kcat [4] was 218 s⁻¹ and the kcat/Km [4] was 55300 M⁻¹ s⁻¹.
